Biological target: T1, SARS-CoV-2 spike protein expressed on Ramos-S cells (SARS-CoV-2, UniProt P0DTC2 14-1273)
T1 construct: whole, on cells; also called S protein; Ramos cells expressing transfected spike protein
Experiment: flow cytometry on Ramos-S cells

B1: CC40.8-H429F (antibody)
heavy: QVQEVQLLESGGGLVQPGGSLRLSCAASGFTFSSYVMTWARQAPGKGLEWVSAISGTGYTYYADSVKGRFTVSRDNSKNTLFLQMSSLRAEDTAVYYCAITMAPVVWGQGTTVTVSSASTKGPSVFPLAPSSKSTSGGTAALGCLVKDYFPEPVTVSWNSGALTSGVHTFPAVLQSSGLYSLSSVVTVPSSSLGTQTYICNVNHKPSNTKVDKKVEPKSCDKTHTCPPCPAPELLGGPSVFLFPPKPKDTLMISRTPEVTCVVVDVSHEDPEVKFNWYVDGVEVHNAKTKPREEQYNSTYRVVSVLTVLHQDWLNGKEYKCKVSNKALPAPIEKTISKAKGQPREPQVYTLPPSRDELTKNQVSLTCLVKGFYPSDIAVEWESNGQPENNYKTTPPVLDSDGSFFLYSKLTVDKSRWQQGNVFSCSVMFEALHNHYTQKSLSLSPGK
light: SYELTQPPSVSVSPGQTARITCSGDALPKRYAYWYQQKSGQAPILVIYEDKKRPSGIPERLSGSKSGTVATLTISGAQVEDEADYYCYSTDSSGNHAVFGGGTQLTVLGQPKAAPSVFIFPPSDEQLKSGTASVVCLLNNFYPREAKVQWKVDNALQSGNSQESVTEQDSKDSTYSLSSTLTLSKADYEKHKVYACEVTHQGLSSPVTKSFNRGEC
notes: also called CC40.8-HF
  binding result: binds
